Assay results from IntAct's records for PubMed 10779557.

B1: Lymphokine-activated killer T-cell-originated protein kinase (Homo sapiens), Q96KB5 (parent)
chain: MEGISNFKTPSKLSEKKKSVLCSTPTINIPASPFMQKLGFGTGVNVYLMKRSPRGLSHSPWAVKKINPICNDHYRSVYQKRLMDEAKILKSLHHPNIVGYRAFTEANDGSLCLAMEYGGEKSLNDLIEERYKASQDPFPAAIILKVALNMARGLKYLHQEKKLLHGDIKSSNVVIKGDFETIKICDVGVSLPLDENMTVTDPEACYIGTEPWKPKEAVEENGVITDKADIFAFGLTLWEMMTLSIPHINLSNDDDDEDKTFDESDFDDEAYYAALGTRPPINMEELDESYQKVIELFSVCTNEDPKDRPSAAHIVEALETDV

Variants of: B1
Conditions: with dlg1_human DLG1, Q12959
dlg1_human DLG1, Q12959, sequence (Q12959 whole entry, looked up): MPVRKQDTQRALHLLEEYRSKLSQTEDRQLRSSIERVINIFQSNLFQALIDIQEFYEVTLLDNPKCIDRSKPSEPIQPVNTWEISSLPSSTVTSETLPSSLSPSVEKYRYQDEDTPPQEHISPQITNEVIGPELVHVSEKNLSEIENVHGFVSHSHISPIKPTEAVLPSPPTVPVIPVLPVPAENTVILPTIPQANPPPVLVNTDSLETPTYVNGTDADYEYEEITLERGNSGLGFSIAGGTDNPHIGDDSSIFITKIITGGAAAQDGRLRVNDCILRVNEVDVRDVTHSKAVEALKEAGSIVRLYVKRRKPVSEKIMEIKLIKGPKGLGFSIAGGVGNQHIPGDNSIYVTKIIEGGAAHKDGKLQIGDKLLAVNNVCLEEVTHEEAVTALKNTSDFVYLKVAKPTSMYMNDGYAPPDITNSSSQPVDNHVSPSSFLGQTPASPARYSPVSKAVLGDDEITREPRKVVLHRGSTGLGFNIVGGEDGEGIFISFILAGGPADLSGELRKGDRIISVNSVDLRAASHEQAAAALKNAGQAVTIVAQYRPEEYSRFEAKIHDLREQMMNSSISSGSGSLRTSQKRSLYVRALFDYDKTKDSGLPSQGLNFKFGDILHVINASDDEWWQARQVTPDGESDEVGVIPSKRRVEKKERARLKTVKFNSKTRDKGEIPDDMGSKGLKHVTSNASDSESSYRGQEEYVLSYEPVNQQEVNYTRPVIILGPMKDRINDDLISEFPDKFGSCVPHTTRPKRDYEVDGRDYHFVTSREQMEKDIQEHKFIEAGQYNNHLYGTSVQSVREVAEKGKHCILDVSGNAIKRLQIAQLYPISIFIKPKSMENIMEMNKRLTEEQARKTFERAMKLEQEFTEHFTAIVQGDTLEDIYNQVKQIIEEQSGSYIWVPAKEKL

Row | Variant | effect of a mutation on the interaction
1 | V322A | disrupting interaction
2 | T320A | decreasing interaction
